The target in the assay is T1, bovine serum albumin (BSA) (bovine, UniProt P02769 25-607).
T1 construct: Control protein for non-specific adsorption to the ASF-SPR chip
In words: SPR, ASF-immobilised chip, BSA in solution. As to the method: The ASF-SPR chip was prepared starting with a 50 nm gold-coated SF10 glass substrate. The first SAM layer was self-assembled using a mixed ethanolic solution of 5×10⁻⁵ M cysteamine (NH₂ terminated thiol) (Sigma-Aldrich, Sydney, Australia) and 4.5×10⁻⁴ M mercaptoethanol (OH terminated thiol, as spacers) (Sigma-Aldrich, Sydney, Australia) for 15 h at room temperature. The second layer of biotin was introduced by coupling biotin-hexanoic acid (Sigma-Aldrich, Sydney, Australia) with cysteamine by activating 1 mg/ml biotin-hexanoic acid in PBS (prepared from a 6 mg/mL stock in dimethylformamide (DMF, Sigma-Aldrich, Sydney, Australia) with 4 mg/mL of 1-(3-dimethylaminopropy)-3-ethylcarbodiimide hydrochloride (EDC, Sigma-Aldrich, Sydney, Australia) and 0.7 mg/mL of N-hydroxysuccinimide (NHS, Sigma-Aldrich, Sydney, Australia). The third layer (of SA) was constructed by loading 45 μg/mL of SA (Invitrogen, Mount Waverley, Australia) into the flow cell, which specifically binds to biotin. This step took about 10 min to reach equilibrium. The SA layer was then activated by 4 mg/mL EDC and 0.7 mg/mL NHS for 5 min, enabling its carboxylic acid residue to react with the primary amino group of ASF (Sigma-Aldrich, Sydney, Australia). 1.0 mg/mL ASF was used in this step to prepare the fourth layer. […]
For orientation: SPR reads the build-up and loss of mass on a sensor chip optically.

T1 sequence (P02769 25-607 limits assumed): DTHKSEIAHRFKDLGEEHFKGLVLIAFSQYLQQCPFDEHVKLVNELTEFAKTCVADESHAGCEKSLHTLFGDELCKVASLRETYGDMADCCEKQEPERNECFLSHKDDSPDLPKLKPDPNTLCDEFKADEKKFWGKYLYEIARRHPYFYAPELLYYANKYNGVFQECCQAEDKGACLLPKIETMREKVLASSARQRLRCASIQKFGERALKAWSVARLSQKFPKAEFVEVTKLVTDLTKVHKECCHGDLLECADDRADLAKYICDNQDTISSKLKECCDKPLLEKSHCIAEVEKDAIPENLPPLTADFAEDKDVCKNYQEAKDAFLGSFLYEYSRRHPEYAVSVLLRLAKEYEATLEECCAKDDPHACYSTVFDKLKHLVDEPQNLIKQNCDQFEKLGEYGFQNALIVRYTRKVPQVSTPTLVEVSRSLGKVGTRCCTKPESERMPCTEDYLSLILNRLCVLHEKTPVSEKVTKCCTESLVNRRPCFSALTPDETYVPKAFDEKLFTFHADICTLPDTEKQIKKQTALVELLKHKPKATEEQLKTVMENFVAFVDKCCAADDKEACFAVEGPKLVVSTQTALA

B1: asialofetuin (ASF) (other, UniProt P12763 19-359, looked up)
chain: IPLDPVAGYKEPACDDPDTEQAALAAVDYINKHLPRGYKHTLNQIDSVKVWPRRPTGEVYDIEIDTLETTCHVLDPTPLANCSVRQQTQHAVEGDCDIHVLKQDGQFSVLFTKCDSSPDSAEDVRKLCPDCPLLAPLNDSRVVHAVEVALATFNAESNGSYLQLVEISRAQFVPLPVSVSVEFAVAATDCIAKEVVDPTKCNLLAEKQYGFCKGSVIQKALGGEDVRVTCTLFQTQPVIPQPQPDGAEAEAPSAVPDAAGPTPSAAGPPVASVVVGPSVVAVPLPLHRAHYDLRHTFSGVASVESSSGEAFHVGKTPIVGQPSIPGGPVRLCPGRIRYFKI
modifications: three triantennary N-link oligosaccharide chains with terminal N-acetyllactosamine (LacNAC) residues and three O-linked disaccharide chains (desialylated)
notes: Immobilised on a home-made SPR chip (thiol-SAM/biotin/streptavidin/ASF) by EDC/NHS coupling to streptavidin; also called asiolofetuin
On to B1, for which the binding result is “no binding (tested: 4.4 mg/mL)”.

The values above are taken from US20110129485A1 (UNIVERSITY OF QUEENSLAND, published 2011).
